Laboratory results taken from the domain aggregation screens of Martell et al. (2025).

Assay: soluble fraction after stress (log2 fold change); higher = more stays soluble; pooled small domains, quantitative proteomics
Conditions: stress: 50 degC
Outline: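 After stress at 50°C, the amount of each protein still soluble was measured. This was done on pooled custom libraries of small protein domains, using high-throughput quantitative proteomics. The figure given is a base-two log fold change and stands for aggregation propensity, with higher values meaning more protein stays in solution.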

In the case of “HMFIEHSKYKLSFKYNQLGKISNVINSNNGIIMDKHFDQNITLLAKLTENTFQEIIKHFPTIIIKRL”, the “soluble fraction (log2)” value is reported as -3.19.

For “HMSEQGVITAKFASIVGNQNIQLVMFPDSVYLKGQVSSEEEKKRAETVASSLIQDRKIVNLIEFE”, the “soluble fraction (log2)” value was -0.0169.

For “HMSKETTYEVLSLKGDEWQTDTIYSDRDEAIEAARNLHGDPHIDGAKVISEVYDDKTGGSKETTIFNT”, the “soluble fraction (log2)” value was 0.226.

In the case of “HMGITDHIYQDLKKRLENGNYPAGTRFPSESTLADEFSVNKMTMNKIVSMLAEQGYLIRGNRGAGTRVAEN”, the “soluble fraction (log2)” value is reported as -0.0862.

With “HMEKVLPFEFERKFKTNHTAWDFFSNQAPPSYRKTVIHWILSAKQEITRISRLEKLIAASEQQKRI” the “soluble fraction (log2)” value was -0.319.

In the case of “HMSQSLSGWAAKDLEVKSGADASYRTVGRLPKGSKVSGKIINGYLHIEFDGSMRYVPVSGISKTE”, the “soluble fraction (log2)” value is reported as -0.134.

For “HMKNVEEMILGKLKRKVSENLENASFEEIILVDAEKSVYKGIIKANYIEYYFRVNLSTGEVLSWKLK”, the “soluble fraction (log2)” value was -0.373.

For “HMDQTKYDAIITEAKKLTAEGQYKESEEKLATIPVSDLGKPHYSIVKETVEKLNNQNNEGLKRQEEVAVE”, the “soluble fraction (log2)” value was -0.02.

For “HMSPKYLELVRWINTQIQEKKLTAGQKMYSENELKEMFGVSRQTVRHAISVLEGEGMIRRVRGSGTYINDN”, the “soluble fraction (log2)” value was -1.83.

For “HMKKNTEALDYYKKAGANFPEDEVISSEYLFRAAQLQEVLGKTDEAVAIYKDIKAKYPTTEIGLNVDKFIL”, the “soluble fraction (log2)” value was -0.0868.

For “HMDLDSGVAVLRTLMSQHNLQTDDFQNEIGGKSMVSMILNGTRKLSKNHIQALSGRFNLSPALFF”, the “soluble fraction (log2)” value was -0.962.

For “HMDLATQHAAKVNAAILAARRFEREGSWRQVAAKYSEALQLMPGNEQASRGYQQAMAMLDERD”, the “soluble fraction (log2)” value was 0.0786.

With “HMSVFMIIVLKQHAPQEFVDMLMSSIKAKGVQIDVSKGARKTILGLVGNTSVIDREQIAGYEYVDKVIRV” the “soluble fraction (log2)” value was -0.85.

With “HMASALDVALNDFAEMRKKMRKPLTDRALALTLSELEKLAPGNDEKKIAILNQSIQRGWQGVFPLK” the “soluble fraction (log2)” value was -0.162.

In the case of “HMALPDSEKRQWLVDEVNERGLKLPDDVLEYLFARVGRSQAHLVDVIEKLDFESLAQSRKLTIPFVREVLK”, the “soluble fraction (log2)” value is reported as -0.152.

In the case of “HMDYLYHNGKEIDQGSIMYKMEDYSDGIFELQSAKYADGTELDEKELEELESTQELIDWVMIDFVS”, the “soluble fraction (log2)” value is reported as 0.42.

With “HMTYSEEEIERDLYVRGTLYQIGDLVENKIDGTSGEIVRRGPNYVQYSDGENFYKAFLHSIQEV” the “soluble fraction (log2)” value was -0.106.

For “HMVSTGIMVVDGRGSVLQHNEAALRQLGVEVLTFESQVKEKLASEDFSVRETTAMLNGKKVRIIAFSDIR”, the “soluble fraction (log2)” value was -1.62.

With “HMPVNGEFIERIKVMVLENKAKGKKERLTKTRMHQLLQEEGYKGSYSAFTHQVRIIEEELGVNQKEAH” the “soluble fraction (log2)” value was -0.0836.

For “HMNQWQLLSEDGAILGTRVLYHPHETEQPFTRSLSGVKIPAHVQSVTIRAGDLVHGFGGREIQMQLPPIV”, the “soluble fraction (log2)” value was -0.0987.

In the case of “HMATPTMEDYIEVIYSLVKTKGYARSADIAEKLEVYPSTVTKMLKKLDAEGYIVYEKYRGIALTDIGKKMG”, the “soluble fraction (log2)” value is reported as -1.73.

For “HMTKIEYTEQEFNDFIQAYKNNRKMFPEDYIVKTQVVFINKGFSKSQADMIIAQIETRLRLQGE”, the “soluble fraction (log2)” value was -0.421.

With “HMSQRINLNSASIEDMQSLDISNEKIDSIIDYRNRYGNIHNIYELLKIPGITIGDIHSIRNAVTVEIPH” the “soluble fraction (log2)” value was -0.112.

With “HMKFTELEQLMLKREINTLADIARVLKTTPQAVSNWKARDQIPYHIVAKINASINKDSNDSSLSI” the “soluble fraction (log2)” value was 0.00789.

In the case of “HMKQYVEPASETEKMVVELWEKVLLTEKIGMHDDFFELGGHSLKAMRLISLYHQEFNVRLSLKSLFEKLK”, the “soluble fraction (log2)” value is reported as -0.121.

For “HMDTLKDFISGVSIVFENKYSVGDNVTIGDFRGDVIELGMKTTKIRAYTGEVLIIPNHLVEKVINH”, the “soluble fraction (log2)” value was -1.51.

In the case of “HMLKNKSTGNINETKAILELALNHSHFKVFDNRDMTVTFKNLATQFTTMQRILVQMFFPLPAGVELIIE”, the “soluble fraction (log2)” value is reported as ≥ 0.62.

With “HMNINLNVGKRLKSIRQNKELSLDEVSNLTNVSKPALAQIERGASSPTINTLWKISKGLKVPLSYFLQE” the “soluble fraction (log2)” value was -0.0405.

In the case of “HMGTPSAEELAFSAQKGNAVMRIMEIREKYIENGGQISDEERNEIERLIAIYYPKASIFDYLPMMG”, the “soluble fraction (log2)” value is reported as -0.136.

In the case of “HMQGRIYLNPDLAEKLRAQYAAYPHWSYLLHTENLGALVRKTESLGPMPSYSTILRYMHANDMRKRNKP”, the “soluble fraction (log2)” value is reported as -1.6.

In the case of “HMAEPYDEDKVMEHLYIKGKDVVIAHLKHLKEHNEHVWLKKGVEWMQKNQDRLGFDMMEVIYVVHNH”, the “soluble fraction (log2)” value is reported as -0.0166.

With “HMREVTVGSAVRLKKGAKTYSGGSLASFVYERNHQVTQLSGDRAVISFKGTVVAAVHKDDLIL” the “soluble fraction (log2)” value was -0.916.

With “HMRGPDLSKDFHEYISSQWMFFGRNAYQIAEQINKDTQLMSKYGKTTPSGVHYHIKQIQQEMEN” the “soluble fraction (log2)” value was -0.398.

For “HMSYYKEMIRLADSIADKAHEGQTDRNGWPYISHPRRVALGARKLVSEMASSTSPDTSLEELKAEVQIVAL”, the “soluble fraction (log2)” value was -0.288.

With “HMGKVLIYKPNMSVSDVAIRLGISNAEIIKRLMGLGVMTSINQTIDRDTIELVAMDLGFSIEN” the “soluble fraction (log2)” value was -0.656.

In the case of “HMGNKKLVLKLSKKLIKIPSFLNIYSVKLTKNGRELEINLDKSQNEAIDIINLIKKNNISFLEFDIKKR”, the “soluble fraction (log2)” value is reported as -0.267.

In the case of “HMSQESIMPNLVGSTEDEAKAIAVEYGFQLNVISRVNNSQYPAGVIIDQNVDEGVRIKAGYPVGVTIS”, the “soluble fraction (log2)” value is reported as -0.207.

With “HMEEDPVISQAQRQALFKLAHDHFGQEEGNKVILRLIGEHGLRSTTNMTASVYKTVTDALIQVIESMVEG” the “soluble fraction (log2)” value was -0.0318.

With “HMSVLPAREQVAAILRQAILLRKFKEGQDLTLKDAAELVGSSITPVREAFQILENEGLIELRPNKGAVVL” the “soluble fraction (log2)” value was -0.284.

For “HMNPMLEPAGEIRLSDGVLLRWQSERLPGDDTVRGPGSLYELGLYRVKVRVSAPQQGVRESSVELAGWRQV”, the “soluble fraction (log2)” value was -0.0771.

With “HMQETPAMLAMKELPTEDEQRIYMMLQEDYDSVLLVKTIRNAFSQNPQLTRQQLLPIILTWLMT” the “soluble fraction (log2)” value was -1.14.

In the case of “HMGMVKLNEEYLEKVKKHRKELHITQLQISKKLGWSLSRYQRFESGFYKEIEDDAPKKIKEEFGIDYSLL”, the “soluble fraction (log2)” value is reported as -0.976.

For “HMGPYGAGSAAPAEDGSGPEGWTVKGNAKSMLYHTEGSPYYGRTNADVWFRDEESAEAAGFRRWDRK”, the “soluble fraction (log2)” value was 0.0581.

With “HMDKEQVTFIFRDIDIALRSLDYPIKDIKNTLNIIKSEFSNSKSTELNEQKINFENILKEAISILENND” the “soluble fraction (log2)” value was -0.627.

In the case of “HMNIDQAFISDLERMIMPDISKYELMDIISIMENSGFTIKVEGTGNEVRQVIKPGSKLKKGQKIKIKL”, the “soluble fraction (log2)” value is reported as -1.83.

With “HMLTSAQLAEIRQAVRAGQASVVEDLLKNGASPNFRMENGDTGFTYAVRADTPQVAEALLKSGKL” the “soluble fraction (log2)” value was -0.0678.

With “HMDDFTEVLLQYLKDHDGYSSIHDKTDAETIYNTFGVSKKTFKKAVGDLYKKRLIVLEEEGIRLLG” the “soluble fraction (log2)” value was -0.0665.

For “HMNSISDSELKALIKNNYLKFLKRIASDEEIEYHFNQIKNKTILLDELDSIFQNSQEYKDLVEHNNKIQN”, the “soluble fraction (log2)” value was -0.0724.

With “HMDKFKDVGARIREARKVQKLSQADLAERLQISTSHMSDIENGKKNIGLDIFMRLTEALQVSADWLL” the “soluble fraction (log2)” value was -0.124.

For “HMHDLGEQIIEKLRASGGISTLTDKSDPDAIYRQFKVSKKKYKQALGTLYKSRRITLAPNQIKLA”, the “soluble fraction (log2)” value was -0.129.

For “HMEVPFRNAAIFKTRSGDYAIRASYDGVDLGIKPIEKSTARTYFQLTDVKDKESFLNMTARNQYESEIAGI”, the “soluble fraction (log2)” value was -0.00166.

With “HMELNELTSRELMVAEQVARGASNREISEALSISERTVKAHLSAAFEKLGVRDRVQLALAMNNIPT” the “soluble fraction (log2)” value was -0.0086.

With “HMNLDYKQFQVFNNIETLNTFTNLLSDNKIDFEVENNSKIFDPSFANNDFEKEYIVKIHPNDFEKVY” the “soluble fraction (log2)” value was 0.064.

With “HMLPGVPVVAGKTQSAATRILKAAGYAVSVVREEAFDGVTGTVLRTSPEAGSPLAPGSRVTLVVLQVV” the “soluble fraction (log2)” value was -0.27.

For “HMAAEFERKNGIVYFFHSSEKPHLNYPHVHARYGEDTISISLRDFTVIGSFSSKKKQKEAVEYVKNK”, the “soluble fraction (log2)” value was -0.662.

In the case of “HMGDTLEIVVIYSNKQKAEEAVNNLKGKFEDLGYNFAIITVDTSKITQLAMESSIQYIEFPKSFYFSD”, the “soluble fraction (log2)” value is reported as -1.64.

For “HMVKIVWSKEGPYVGTRVRRYFSQGPVDGTVVMYAKPQKGDDVALWRISHDDGDEEDLEEQELRLAID”, the “soluble fraction (log2)” value was -1.65.

For “HMNANTILNSQRILTQLGFNPGPIDGAFGAKTKGALNAFYTSIGKSYDGLLDSNELVELQKALDVSGLKN”, the “soluble fraction (log2)” value was -0.295.

With “HMETMSGTVKWFNTQKGYGFITGDDGAEYFAHQTQIKMDGFRTLDAGDIVEFDVRSEEKGLAAVNIVP” the “soluble fraction (log2)” value was -0.0597.

For “HMAKPVKSPLPGSVIKVAVKVGQQIKRGDLLLTLESMKMENSILAEKDGVVKNIHVQAGQSVMQDDLLLDI”, the “soluble fraction (log2)” value was 0.0752.

In the case of “HMAGTRRFELVEGSSSKFWEVTVADGSYTVTYGRIGTAGGSKTTESATAEADAEKLVREKLKKGYQEAGAA”, the “soluble fraction (log2)” value is reported as 0.245.

For “HMNELIGVEQLQDLREAIADHGFAEQRVLNWLYQATKGQVSRLEQLPLPMLTTLHKKLGQWADAEAAASSA”, the “soluble fraction (log2)” value was -0.0602.

With “HMKQLNKRQNDILSFAEKQGYVSVENLAKLFSVTQQTIRRDINYLSDNELLVRTHGGAYYSS” the “soluble fraction (log2)” value was -0.902.

In the case of “HMKEVDERPWGKYEVLLDAPDVKVKRITVNPGQRLSYQYHEKRAEVWTVVSGILTIILEDDKLFRG”, the “soluble fraction (log2)” value is reported as 0.237.

For “HMVINQRKLNLLSIYSSGSEKRAIILFPTGQTKFVKVGDTLDGGRVAAIGTSEIRYLKGGNNLVLRIPG”, the “soluble fraction (log2)” value was -2.63.

With “HMTDFSDLSFKYNSEEKDVLNSINLKINGGEMTSLVGHSGAGKTTILNLIPRFYEKSKGDISIDGQSIY” the “soluble fraction (log2)” value was -0.0832.

With “HMTGAEGKLARYLLTVPSGEPLRLSATDLAKRLGISRASLYRAFQALEDARLIRREGKSMYVLDPAGLEGV” the “soluble fraction (log2)” value was -0.289.

In the case of “HMTTIHVDPEKISKIIGPGGKTIKKIVEETGAKIDIEEDGRVYIAAVNSEEAAKAIDMINGI”, the “soluble fraction (log2)” value is reported as 0.257.
